± gives the standard deviation of the averaged measurements.
System: ATP
Test: switch fluorescence ratio, 500 uM ATP over buffer (Cy3 cluster intensity, sum of 5 cycles each) (fold (ratio)); higher = stronger signal-on switching upon ATP binding; sequences stand for … in TCGTCGGCAGCGTCAGATGTGTATAAGAGACAGTTTTTTTTTTTTTTTTTTTTTTTTT…TC
Details: aptamer strand: ATP DNA aptamer (quencher-CACCTGGGGGAGTATTGCGGAGGAAGG + anchor), 100 nM annealed; ATP concentration: 500 uM
How it was run: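 Values give the fluorescence ratio for each switch-domain sequence, averaged from per-cluster ratios of summed target-cycle to summed buffer-cycle Cy3 intensity. The Cy3-labelled switching-strand clusters sat on a modified Illumina MiSeq flow-cell, were annealed to 100 nM quencher-labelled ATP aptamer, and were imaged in selection buffer, then after 15 min with 500 uM ATP at 22 °C. Five cycles ran with NaOH stripping and re-annealing between them, and clusters outside 100-1000 RFU were excluded.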
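Further: ATP exposure 15 min at 22 °C before imaging.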

Sequence	switch fluorescence ratio
GTTCAGTTTG	1.03 ± 0.031
GTTCATAAAG	0.98 ± 0.028
GTTCCAGTTT	1.039 ± 0.006
GTTCCGCCGA	1.23 ± 0.026
GTTCCGGTTT	1.01 ± 0.034
GTTCCTATGA	1.01 ± 0.043
GTTCCTCATT	1.45 ± 0.61
GTTCGAAAAA	0.961 ± 0.09
GTTCGAAAGG	1.022 ± 0.0095
GTTCGAGAGC	0.995 ± 0.057
GTTCGGGATT	0.981 ± 0.023
GTTCGGGGGT	0.986 ± 0.025
GTTCTAGTGT	0.972 ± 0.04
GTTCTATATT	0.986 ± 0.062
GTTCTATCAG	0.995 ± 0.09
GTTCTCCTGA	1.01 ± 0.014
GTTCTGGGGT	1 ± 0.016
GTTCTTGATG	0.967 ± 0.015
GTTCTTGGAG	0.9991 ± 0.0031
GTTCTTGTAA	1.017 ± 0.0088
GTTGAAAATT	0.99 ± 0.021
GTTGAACGGT	1.1 ± 0.053
GTTGAAGAAA	0.998 ± 0.072
GTTGAATCTG	1.26 ± 0.36
GTTGACCGGC	0.996 ± 0.011
GTTGAGCGGG	0.9786 ± 0.0069

Sequence	switch fluorescence ratio
GTTGAGTAGG	0.994 ± 0.012
GTTGATAAGT	1.01 ± 0.0084
GTTGATATAG	1 ± 0.021
GTTGATGCCG	1.001 ± 0.0012
GTTGATGGTG	1 ± 0.039
GTTGCAGGGT	1.004 ± 0.0065
GTTGCCGAGT	1.024 ± 0.0048
GTTGCGATGA	1.02 ± 0.013
GTTGCGGGGG	0.9937 ± 0.0015
GTTGCGGGGT	1.02 ± 0.029
GTTGCGTCGA	0.997 ± 0.016
GTTGCGTCTA	1.04 ± 0.033
GTTGCTACCT	1.05 ± 0.038
GTTGCTGATT	1.02 ± 0.04
GTTGCTGGGG	0.998 ± 0.011
GTTGCTTTGG	1.04 ± 0.017
GTTGGAAGAT	1.03 ± 0.015
GTTGGAGCCT	0.995 ± 0.065
GTTGGCAACA	1.04 ± 0.056
GTTGGGAAAA	1.01 ± 0.034
GTTGGGGAAT	1.04 ± 0.093
GTTGGGGAGC	1.005 ± 0.0066
GTTGGGGAGT	0.9776 ± 0.0062
GTTGGGGGAG	0.978 ± 0.02
GTTGGGGGCC	0.997 ± 0.013
GTTGGGGGTA	0.999 ± 0.028

Sequence	switch fluorescence ratio
GTTGGGGGTG	0.992 ± 0.037
GTTGGGGTGC	1.01 ± 0.028
GTTGGGTATA	0.996 ± 0.014
GTTGGGTCAT	1.01 ± 0.045
GTTGGGTGAG	0.987 ± 0.02
GTTGGGTGGG	0.984 ± 0.013
GTTGGGTTGG	1 ± 0.033
GTTGGTCTGG	0.943 ± 0.048
GTTGGTGACG	1.048 ± 0.0055
GTTGGTGTTG	0.998 ± 0.032
GTTGGTTTTT	0.975 ± 0.027
GTTGTAAAAA	0.968 ± 0.046
GTTGTAGGGT	0.976 ± 0.022
GTTGTCCTTG	1.01 ± 0.015
GTTGTCGGGG	1.02 ± 0.018
GTTGTGAGCG	1.01 ± 0.048
GTTGTGCGGG	1.02 ± 0.0089
GTTGTGGGGA	1.02 ± 0.023
GTTGTGTCTG	0.979 ± 0.013
GTTGTGTTTG	0.998 ± 0.022
GTTGTTACAA	1.004 ± 0.0092
GTTGTTAGCG	1 ± 0.037
GTTGTTATTT	1 ± 0.011
GTTTAAAAGC	0.9842 ± 0.0061
GTTTAAACGC	1.01 ± 0.026
GTTTAAAGGG	0.998 ± 0.013

Sequence	switch fluorescence ratio
GTTTAAATAG	1.04 ± 0.011
GTTTAAGAAA	0.998 ± 0.027
GTTTAAGTTC	0.988 ± 0.017
GTTTAATTGC	0.995 ± 0.049
GTTTAATTTT	0.987 ± 0.033
GTTTACGTTC	1.02 ± 0.049
GTTTAGATG	0.989 ± 0.022
GTTTATAGGG	0.985 ± 0.025
GTTTATGCAC	1.06 ± 0.084
GTTTATGGGT	1.023 ± 0.009
GTTTATGGTT	1 ± 0.022
GTTTATTCGA	0.989 ± 0.014
GTTTATTGTT	1 ± 0.047
GTTTATTTCT	1.02 ± 0.049
GTTTCAAGAT	0.994 ± 0.044
GTTTCCAGTT	1.03 ± 0.023
GTTTCCTATT	0.959 ± 0.013
GTTTCGTCCA	2.1 ± 1.6
GTTTCTGTTA	0.9574 ± 0.0033
GTTTGCATTT	0.981 ± 0.015
GTTTGCGACT	0.998 ± 0.067
GTTTGCGCAG	1.02 ± 0.018
GTTTGCTCCC	1.15 ± 0.086
GTTTGCTTAG	0.986 ± 0.024
GTTTGGGGTA	0.986 ± 0.013
GTTTGGGGTC	0.984 ± 0.018

Sequence	switch fluorescence ratio
GTTTGGGTAG	1.02 ± 0.034
GTTTGGGTGT	1 ± 0.016
GTTTGGTTGG	1 ± 0.02
GTTTGTAAGC	1.03 ± 0.01
GTTTGTAGTG	1.01 ± 0.026
GTTTGTCTGC	0.963 ± 0.025
GTTTGTCTTT	1.02 ± 0.012
GTTTGTGCGG	0.9811 ± 0.0084
GTTTGTGGTA	0.978 ± 0.011
GTTTGTGGTT	0.988 ± 0.019
GTTTGTGTTC	0.988 ± 0.015
GTTTTAACTT	0.999 ± 0.054
GTTTTAAGGC	1.01 ± 0.058
GTTTTACCGC	1.01 ± 0.018
GTTTTACGTC	0.981 ± 0.047
GTTTTACTGA	1.03 ± 0.021
GTTTTATCCG	1.025 ± 0.0045
GTTTTCAGTA	0.982 ± 0.0022
GTTTTCGCCG	1.03 ± 0.11
GTTTTCGGGG	1.04 ± 0.029
GTTTTCTATG	1 ± 0.021
GTTTTCTTCA	1.04 ± 0.018
GTTTTGAGAG	0.9595 ± 0.0086
GTTTTGCGTT	0.988 ± 0.028
GTTTTGGAGG	0.9691 ± 0.0043
GTTTTGGGAG	1.02 ± 0.033

Sequence	switch fluorescence ratio
GTTTTGGGCC	1.02 ± 0.05
GTTTTGGGGG	1.02 ± 0.025
GTTTTGTAAA	0.975 ± 0.026
GTTTTGTATG	1.004 ± 0.0044
GTTTTTAACG	1.02 ± 0.05
GTTTTTACTG	1.05 ± 0.081
GTTTTTAGCA	0.9719 ± 0.005
GTTTTTATAG	0.992 ± 0.014
GTTTTTCAAG	0.975 ± 0.01
GTTTTTCGGG	0.981 ± 0.034
GTTTTTCGT	1 ± 0.062
GTTTTTCTGT	1.01 ± 0.014
GTTTTTGACA	0.989 ± 0.015
GTTTTTGCTT	1.01 ± 0.032
GTTTTTGGAA	1.05 ± 0.013
GTTTTTGGAC	0.982 ± 0.029
GTTTTTGGAT	0.991 ± 0.0049
GTTTTTGGGG	0.987 ± 0.055
GTTTTTTAAA	0.987 ± 0.04
GTTTTTTTGG	1 ± 0.018
TAAAAAAACG	1.1 ± 0.021
TAAAAAAGCC	1.03 ± 0.091
TAAAAAATGT	1 ± 0.019
